Assay results published in the DeepSol protein solubility set.

Test: soluble on expression in E. coli; label from the status in PepcDB or PDB records

Sequence	soluble on expression in E. coli
MGSDKIHHHHHHMKATLKSLRETKANPAVSIFVKTHREHPANDKDPIALKNQLKVVEERLTNEYDKRTATTILDNIHAKTKEHNHNLNLDTLAIFASTDDVQVIRMPIDTTERVVISHRFATRDLVRDMASAVHYYTLVLTRDKARLIEVSNDRVIREFDLDDTAQNNMENIPFPIDNNGLHTTSDGGSDRSANNDSSALKEFFNQVDKSVQELWGEHKMPLVVVGDTKNIGYYKDVCDRPDNIIATVSNATNLEEGSAQHIINSVQEAVEGYRTSLHQAALGEIDKARGANRLQTDLQEVYRSAFQGVGDTLYVRRGYIQPAKIDEKAQTLSLADDSGAEGITDDAIGEIIEHVIHNGGKAVFMPQDIMSEDQPIALVTRY	not soluble
MNPLKAGDIAPKFSLPDQDGEQVNLTDFQGQRVLVYFYPKAMTPGCTVQACGLRDNMDELKKAGVDVLGISTDKPEKLSRFAEKELLNFTLLSDENHQVCEQFGVWGEKSFMGKTYDGIHRISFLIDADGKIEHVFNDFKTSNHHDVVLNWLKENA	not soluble
MGGSHHHHHHGMASALRGLEEPGPRPTATPCGCVKPALETGNLLTEPVGYLESCFSAKNGTPRQPSICSYSRACLRIRKRIFNNPEHSLMGLEQFSHVWILFVFHKNGHLSCKAKVQPPRLNGAKTGVFSTRSPHRPNAIGLTLAKLEKVEGGAIYLSGIDMIHGTPVLDIKPYIAEYDSPQNVMEPLADFNLQNNQHTPNTVSQSDSKTDSCDQRQLSGCDEPQPHHSTKRKPKCPEDRTSEENYLTHSDTARIQQAFPMHREIAVDFGLESRRDQSSSVAEEQIGPYCPEKSFSEKGTDKKLERVEGAAVLQGSRAETQPMAPHCPAGRADGAPRSVVPAWVTEAPVATLEVRFTPHAEMDLGQLSSQDVGQASFKYFQSAEEAKRAIEAVLSADPRSVYRRKLCQDRLFYFTVDIAHVTCWFGDGFAEVLRIKPASEPVHMTGPVGSLVSLGS	not soluble
MSPMNRQRKNKSNVLNEKDERPGCIIKEKSSVRSMAKTQPTSGRTISLSEINKPIALSKKNTEIKAAVEIQNRLTKKMAKNSERRKKMAHGPEMTAQNRTQERIDFVEFLDRHYQVMQAGVSTVKVHKMHYTKEEFENVIYEAQTIFSSEKALVDIDPPCVVVGNLHGQFNDLINMFILLGRPPETVYVFTECVTSIPKCGEEIWALFQRCFNNLPISALIATKILCMHGGLSPALTCLDELRNHPKPIRNPFRGIVNDMLWADPDPSVFEWKTSSRGSGFTFGTNVIDDVCKRLGVELIIRAHQMCFDGYWVLSGRKLITIFSAPMYCNFYKNTGCVLKVDETLGIQTVAFVPESENIEKIIEEMNRVWDISIDCIE	not soluble
KTKNEPKVILELAKESDLPEFQKKLQEAFAIAVIETFGDCEDGPIPSDNDVQESFNAPGAVVYHILQDGKNVGGAVVRINSQTNHNSLDLFYVSPEYHSQGIGLSAWKAIEAQYPDTVLWETVTPYFEKRNINFYVNKCGFHIVEFYNEHHSNPHMHRNGR	soluble
MGSDKIHHHHHHMDVVLHIGAHRTASSALQHHLSRNRSKLAEAGVVYWGPKITRGGLFRGAIGGVEGALPWQERRFGKRCALRAEAVRQTGATHLMISDENMVGSLRGALEFTRLYSDAGRRIASYAHGFKTHRMTVALCIRDYADWWVSAMAFRLPRGGPLPRTQARERLVTQPRRWRHVVEDLAQALPDARLVVWSYEASAHALPTLVGDLTGVASADDRAGPRNLRPTAADLHDLMDACDIDPDMFHWPDGQFMPFTVHETEALRAQYQEDLAWLRAGARGFADYIDAPSAQTEAPTDLGRGNPDDGEHRQLA	not soluble
DIVLTQSPSSLAVSLGQRATISCRASQSVSTSSFRYMHWYQQKPGQPPRLLIKYASNLESGVPARFSGSGSGTDFTLNIHPVEEEDTATYYCQHSWEIPYTFGGGTKLEIKRADAAPTVSIFPPSSEQLTSGGASVVCFLNNFYPKDINVKWKIDGSERQNGVLNSWTDQDSKDSTYSMSSTLTLTKDEYERHNSYTCEATHKTSTSPIVKSFNRNEC	soluble
MSEIKTDDPKRGIKLRGADKTARIPIKVVPLQEKLKKPEWIRAKLPSRKFFEIKDILREQKMHTVCEEASCPNIGECFSKGTATFMIMGDICTRRCPFCDVGHGRPNMLDPDEPRNLAESVKAMNLRYVVITSVDRDDLRDGGAQHFADCIKAIRETSPNTKIEILVPDFRGRLDIALKILAETPPDVMNHNLETHPSLYRKARPGANYQHSLDLLKRYKEMMPHIPTKSGIMVGLGETDEDVREIMRDMRAHNIEMITIGQYLQPSDGHLPVLRYVTPEQFKIFEKEAYELGFSNAAIGAMVRSSYHADEQAAEALRESHGGCGHH	not soluble
QVQLVESGGGLVQPGGSLRLSCAASGFTFNSYWINWVRQAPGKGLEWVSGIAYDSSNTLYADSVKGRFTISRDNSKNTLYLQMNSLRAEDTAVYYCARGLGAFHWDMQPDYWGQGTLVTVSSASTKGPSVFPLAPSSKSTSGGTAALGCLVKDYFPEPVTVSWNSGALTSGVHTFPAVLQSSGLYSLSSVVTVPSSSLGTQTYICNVNHKPSNTKVDKKVEPKSCDKTH	soluble
LGIDLLSYYIEAGSCMIYYNEKPYIDEFQQYVSDNDISTTDVEQYDEWMSEHDVAFYSVQEMGKVIYNKSNVDKLISPAKNMYDYRFTGSYELPVQFSDIEAEVFIYTGFTEKYY	not soluble
MNTKKFAKVNEQIPGPKAASLLERRQNIVPKGVSNGIPTFVQSANGALVTDVDGNQYIDFAGAIGTINVGHCHPAVKEALHKQVDQYIHTGFNVMMYEPYIELAEKLAALAPGSFDKQVLFLNSGAEAVENAVKIARKYTKRPGIIAFSKGFHGRTLMTMTMTSKVKPYKFGFGPFAPEVYKAPFPYEYRCPEGLTEEQYDDFMIEEFKNFFISEVAPETIAAVVMEPVQGEGGFIVPSKKFAQEVRNICSEHGILFVADEIQTGFSRTGKYFAIDHYDVVPDLITVSKSLGAGVPISGVIGRKEIMNESAPGELGGTYAGSPLGCAAALAVLDVIEKENLNDRAIELGKVVMNRFEEMKNKYNCIGDVRGLGAMCAFELVQDRKTKTPDKTLTANLCTEANKRGLLLLSAGTYGNVIRVLMPLVITDEQLEEGLTIIEESLQICYEKANTARV	not soluble
MGSDKIHHHHHHARDTLFVNLTDATDSQSLKLSDFGNTVRYVPLETNEVCLIGNNPHIALLEDKIVIATKDQCFLFHKQTGKYICSIGHIGDDPSGYSSTNYWIDDAGLFYFFRAPDQLLKYNQKGEMTGKIQIPHIPAAPDFFAFSDSTIIAHCNSSIGLESSNSLLFLNSFGEKLDSIPNLLKSPSIPSPDNISSLSIIKRGAGFFGNLGRRGVMIIKDKEQGELLLPLYNPSLWSSENEVRFRETFTDTIYTIKNRKLYPYMVFHTDTDHSSANPLWYSNPQSIYVAYVLENTHSVFFQYVKNKQVYNGLYNKETQQTKFAKCQQFIVDDLTSEQELKVDLSALCSYKGEYGFILEAASIPDASQKQSDNKNENIPHWMSQLDEDANPVIAIVSDK	not soluble
MAHHHHHHMSSYDAMSAVSSNGAVMPEINLHPRLMTHRPESDSYTGSARHSSRSTRAVPTNAELAYAGVTAQDGVVQQLSSRSEERGSLAGPREVSAQSNSGHRALRAITACGSIDEPLQLSEPHQGRAIRDTPREQKPQQHQSQPTRSISHGVVARNAAGAGSSREPIRPGRSSCSSTPRIPSKHNDPYAHVTSVVQEYRQSRINALEAQYRVAHTHSNTSVSQGYDTRQSQSASPRSLEARRNASAHSRASARPRDGSWRMSSVSSRTRQNSPLPRAVEEEYLRGGVPRAALDAPHIRYAEALYNMYNSSSSSARRLACMSSMSSNMTTEYVPDVAKRIPDRFKYVPPTEEERRLHREATLRALEEWRRRQCARENAHCKGSEDMAAGGAAVELRNRNPPKNQSGTRSQQPQQAGHEEAAAWALQKGFDNTSDSFSGQARDSFTPSKKCSARKAKKIRSAAEQRDDYPTNEGAGEWERPQSSVGKRSGTLISRRQNGAGLRASSRKGRKSPTESARVEDGMKLNSFREKLLFDIAPPTVSIA	not soluble
MSLDKIFVEEAVSELHTLQDMIRWTVSRFNAANLFYGQGTDNAWDEAVQLILPTLYLPIDVPPHVLSSRLTSSERLRVVERVIKRINDRTPVAYLTNKAWFCGLEFFVDSRVLVPRSPIGELIQNRFEPWLTEEPTRIMDLCTGSGCIAIACANAFPEAEVDAIDISVDALNVAEQNIQDHGLEQQVFPIRSDLFRDLPQEQYDLIVTNPPYVDQEDMDSLPSEFRHEPELGLAAGSDGLKLARRILANAPLYLKENGILVCEVGNSMVHMMEQYPHIPFTWLEFENGGHGVFLLTREQLIDCAADFALYKDEGHHHHHH	soluble
MGSDKIHHHHHHMSQHVLLNSIEHKDVKVMTHRSAALGDNLWYSVTFPQEFRSVQAHYPIFFHKDTATGQFYAVALFGFQQNDNVFLSDQGWSASYVPLTVRRQPFLIGQQTVLEDGVERQQRVIHVDLDHPRVSETEGEALFLPYGGNTPLLDEVGEILEVIHHGLQDGQRFVDALIEHQLLESFTLDIELDNGQKNQMIGFYTINEETLAGLSADALAKLHQQGYLQAIYMTLASQSNVRDLLNLKNAQG	not soluble
MEYGCQPNVLKKTILKMVKRRIHVEGAKKAVNEALLNSQAKAAEEICRIAYESPGGVVFLGAPTGAGKTEVFMAPLLASFASKRPIAARGFLVEPMHSLIKAMVDRLKTSIETLGVSEDHGETVQPTFLYTAPITVTTPDTYFYGFAASRVYRILTHEGVETGRFSMPVGLQATSYTVFDEAHLVQDEVFLSPRLLSLVVAALARAGGLIVVSSATLPSYYKTVIREKLGDWRVEEV	not soluble
MGSDKIHHHHHHMNNLYHLKVRCSSLHKIIGEPKSKADKEAGKLTDTAKSAVREMAKFDLFGYNAFEGNKYTQKGNELEEQAIKLSGVTRGLALKKNTERRENEFITGECDIYVPSRKLIIDTKCSWDIGSHPFFTDEAQEKAKKAGYDIQMQGYMWLWDCDQAQIDFVLFPTPLNLISAYDSDFKLIDLVEQIPQIRRITTVIIQRDNELIDKIKERVSAAQKYYDQLISEMS	not soluble
MANSAGSMTIFVISDSAGETASKLAAASMAQYPTVDFTLIRRTFVKDEDKLVQALEDAKKAEAMVLHTIINDHLVAIANQFFNEHQLFHFDILTPPVAEIERLTGVAPMREPGALHHLNENYFKRIEAMEFAVKYDDGKDPRGFLEADVLLLGVSRTSKTPLSLFLANKNLKVANLPLIPEAHLPKQLFEMDPKKIVGLTNDPNVLNGIRKERMRAYGLPENTSYSDIEKIRRELAFANDLYQKLGCIVIDVASLSIEETASMILNALNLEDHSYYSTETSEDLEHHHHHH	not soluble
MIHSNEPLPYAIEYAKSGRSTCKTCKKNIALDQLRMSMNRPSTFFDGNMDSWFHYNCFWNKMIRGRDDINISSIRGVDWLRWEDQEKLRQEIQHFKTASPPTLTPLFSTTTVILSTIKTEKSLSNRGKCGKCGQNFERGEIKAHNKGKANHFECFLQEFDKISGTVEDIPGWADYEANFKIKATGEYVEALAAKGGSTEPATPASASPTPPEAETPVLSAEGSPESSNKRPASAEIIEIDGEGNPDENDFAKKRRMKKEARLMEVQKKRMKKQSDLLWEYRQIFERMPYTDNISILRENEQDIPEGHDRTAQDVFHEKTKNDWIYRKHFRKMPGMFSYVETDYSEFVGTNNGHKKKITPGSKITPGSKTLLPKSVKEVVMSIFDVENMKSALKSFEIDVNKMPLGRLSHNQINLAFEVLNDISDLLVKLPIDASKILDFSNKFYTIIPHNFGMRVPEPIDSFHKIKEKNNMLNALLDIKFAYDQISGGDVPASTSLSIDPVDINYRKLKCIMEPLQQGCDDWNMIHQYLKNTHGATHDLKVELIDILKVNRDNESSKFKRHIGNRRLLWHGSGKMNFAGILGQGLRIAPPEAPVSGYMFGKGVYFADMFSKSFFYCRANAKEEAYLLLCDVALGNVQQLMASKNVSRQTLPAGFQSVQGVGRQCPREIGSYKNPDGYTVPLGLTYMQLQGKQNVDYHLLYNEFIVYDVDQIQLKYLVRVKMHHARHL	not soluble
